According to patent publication US20200340060A1, “COMPOSITIONS AND METHODS FOR IDENTIFYING AND TREATING LIVER DISEASES AND MONITORING TREATMENT OUTCOMES” (Gilead Sciences, Inc., priority 2017, published 2020):

Test system: liver fibrosis in NASH subjects
Assay: Simtuzumab clinical studies (SIM 0105/0106) in NASH, CRN fibrosis stage change at week 48
Type: in vivo, human
Conditions: SIM study samples

B1: simtuzumab (antibody, chains of the INN, looked up, V domains shown)
VH: QVQLVQSGAEVKKPGASVKVSCKASGYAFTYYLIEWVRQAPGQGLEWIGVINPGSGGTNYNEKFKGRATITADKSTSTAYMELSSLRSEDTAVYFCARNWMNFDYWGQGTTVTVSS
VL: DIVMTQTPLSLSVTPGQPASISCRSSKSLLHSNGNTYLYWFLQKPGQSPQFLIYRMSNLASGVPDRFSGSGSGTDFTLKISRVEAEDVGVYYCMQHLEYPYTFGGGTKVEIK
efficacy on fibrosis stage change: lack of efficacy
